Source: patent publication US20240034757A1 (OXFORD UNIVERSITY INNOVATION, published 2024)
Where a chain is given by its changes, count along the chain named. Read-outs that look alike come from different tables or passages of the source.

Assays:
P1080_IXORI [1] = biological target: T1, P1080_IXORI (Ixodes ricinus, UniProt A0A090XBL6 20-118); experiment: BLI [Cont.]
P1095_IXORI [2] = biological target: T2, P1095_IXORI (Ixodes ricinus, UniProt A0A0K8RCE3 24-112); experiment: BLI [Cont.]
T2 sequence: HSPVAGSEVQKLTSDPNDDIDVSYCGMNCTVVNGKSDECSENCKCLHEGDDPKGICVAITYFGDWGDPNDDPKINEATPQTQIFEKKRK

P1096_IXORI [3] = biological target: T3, P1096_IXORI (Ixodes ricinus, UniProt A0A0K8RKE4 24-114); experiment: BLI [Cont.]
T3 sequence: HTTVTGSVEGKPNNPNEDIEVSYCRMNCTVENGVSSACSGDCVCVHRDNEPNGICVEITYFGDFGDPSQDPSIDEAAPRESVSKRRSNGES

P1127_IXORI [4] = biological target: T4, P1127_IXORI (Ixodes ricinus, UniProt A0A0K8RJ67 29-108); experiment: BLI [Cont.]
T4 sequence: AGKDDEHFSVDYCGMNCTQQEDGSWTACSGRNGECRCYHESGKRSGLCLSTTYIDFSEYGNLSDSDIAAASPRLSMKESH

P1128_IXORI = biological target: T5, P1128_IXORI (Ixodes ricinus, UniProt A0A0K8R6B3 19-90); experiment: BLI [Cont.]
T5 sequence: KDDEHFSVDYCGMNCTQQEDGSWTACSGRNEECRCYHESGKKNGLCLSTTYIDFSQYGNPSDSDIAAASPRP

P1132_IXORI [5] = biological target: T6, P1132_IXORI (Ixodes ricinus, UniProt V5GZ08 29-106); experiment: BLI [Cont.]
T6 sequence: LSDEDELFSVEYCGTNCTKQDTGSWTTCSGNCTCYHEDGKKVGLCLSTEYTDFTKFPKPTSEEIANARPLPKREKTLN

P1134_IXORI [6] = biological target: T7, P1134_IXORI (Ixodes ricinus, UniProt A0A0K8RAI0 32-135); experiment: BLI [Cont.]
T7 sequence: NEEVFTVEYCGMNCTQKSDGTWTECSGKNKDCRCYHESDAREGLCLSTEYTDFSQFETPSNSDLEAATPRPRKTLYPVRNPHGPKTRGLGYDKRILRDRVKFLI

P1162_IXORI = biological target: T8, P1162_IXORI (Ixodes ricinus, UniProt A0A0K8RDJ1 29-99); experiment: BLI [Cont.]
T8 sequence: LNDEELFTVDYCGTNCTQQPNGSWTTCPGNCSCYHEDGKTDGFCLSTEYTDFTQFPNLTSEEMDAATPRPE

P1166_IXORI [7] = biological target: T9, P1166_IXORI (Ixodes ricinus, UniProt A0A0K8RE99 25-110); experiment: BLI [Cont.]
T9 sequence: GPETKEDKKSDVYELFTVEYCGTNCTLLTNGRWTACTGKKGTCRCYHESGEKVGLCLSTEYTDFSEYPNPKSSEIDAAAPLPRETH

P1168_IXORI [8] = biological target: T10, P1168_IXORI (Ixodes ricinus, UniProt A0A0K8RCU3 25-106); experiment: BLI [Cont.]
T10 sequence: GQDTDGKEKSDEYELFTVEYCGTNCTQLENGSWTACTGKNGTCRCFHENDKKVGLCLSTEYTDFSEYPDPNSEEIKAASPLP

P1170_IXORI = biological target: T11, P1170_IXORI (Ixodes ricinus, UniProt A0A0K8RD51 29-102); experiment: BLI [Cont.]
T11 sequence: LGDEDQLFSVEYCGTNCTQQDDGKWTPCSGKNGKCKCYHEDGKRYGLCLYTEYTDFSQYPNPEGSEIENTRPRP

P1172_IXORI = biological target: T12, P1172_IXORI (Ixodes ricinus, UniProt V5I2G9 24-94); experiment: BLI [Cont.]
T12 sequence: T8 sequence with N2H, D3E, E4D, L6I, Q18K, P20S

P1174_IXORI = biological target: T13, P1174_IXORI (Ixodes ricinus, UniProt V5I3C5 28-104); experiment: BLI [Cont.]
T13 sequence: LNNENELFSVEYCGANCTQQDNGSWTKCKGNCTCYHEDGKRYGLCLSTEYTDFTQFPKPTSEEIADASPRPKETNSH

P1229_IXORI = biological target: T14, P1229_IXORI (Ixodes ricinus, UniProt A0A0K8R4R9 32-108); experiment: BLI [Cont.]
T14 sequence: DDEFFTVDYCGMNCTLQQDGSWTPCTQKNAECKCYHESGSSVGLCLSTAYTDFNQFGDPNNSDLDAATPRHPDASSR

P1156_IXORI [9] = biological target: T15, P1156_IXORI (Ixodes ricinus, UniProt V5HBW0 29-108); experiment: BLI [Cont.) C]
T15 sequence: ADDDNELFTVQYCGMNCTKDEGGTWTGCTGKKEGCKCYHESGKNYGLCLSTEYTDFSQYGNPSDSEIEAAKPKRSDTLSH

P1156_IXORI [10] = biological target: T15, P1156_IXORI; experiment: BLI
P1080_IXORI [11] = biological target: T1, P1080_IXORI; experiment: BLI
P1095_IXORI [12] = biological target: T2, P1095_IXORI; experiment: BLI
P1096_IXORI [13] = biological target: T3, P1096_IXORI; experiment: BLI
P1127_IXORI [14] = biological target: T4, P1127_IXORI; experiment: BLI
P1132_IXORI [15] = biological target: T6, P1132_IXORI; experiment: BLI
P1134_IXORI [16] = biological target: T7, P1134_IXORI; experiment: BLI
P1166_IXORI [17] = biological target: T9, P1166_IXORI; experiment: BLI
P1168_IXORI [18] = biological target: T10, P1168_IXORI; experiment: BLI
CCL16_HUMAN = biological target: T16, CCL16_HUMAN (human, UniProt O15467 24-120); experiment: BLI;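 further: biolayer interferometry on an Octet system: chemokines at several doses tested against tick chemokine-binding proteins, association, equilibrium and dissociation curves fitted to derive Kd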
T16 sequence: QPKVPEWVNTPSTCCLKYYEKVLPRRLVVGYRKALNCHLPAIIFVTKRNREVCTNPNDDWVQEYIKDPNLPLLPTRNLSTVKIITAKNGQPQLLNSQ

CCL5_HUMAN [19] = biological target: T17, CCL5_HUMAN (human, UniProt P13501 24-91); experiment: yeast surface display FACS
T17 sequence: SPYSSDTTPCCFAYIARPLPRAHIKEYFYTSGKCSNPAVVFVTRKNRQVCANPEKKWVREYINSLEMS

CCL17_HUMAN = biological target: T18, CCL17_HUMAN (human, UniProt Q92583 24-94); experiment: yeast surface display FACS
T18 sequence: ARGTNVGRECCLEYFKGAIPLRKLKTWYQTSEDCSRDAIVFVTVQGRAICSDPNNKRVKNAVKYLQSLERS

CCL20_HUMAN = CCL20_HUMAN (human, UniProt P78556 27-96); experiment: yeast surface display FACS
CCL20_HUMAN, sequence (P78556 27-96 limits assumed): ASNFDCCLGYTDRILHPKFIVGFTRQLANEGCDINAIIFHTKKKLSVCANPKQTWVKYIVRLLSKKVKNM

CXCL8_HUMAN = biological target: T19, CXCL8_HUMAN (human, UniProt P10145 28-99); experiment: yeast surface display FACS
T19 sequence: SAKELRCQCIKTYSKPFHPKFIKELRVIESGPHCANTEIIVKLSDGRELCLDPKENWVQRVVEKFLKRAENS

CCL5_HUMAN [20] = biological target: T17, CCL5_HUMAN; experiment: yeast surface display FACS; remark: listed apart in the source
CCL11_HUMAN = CCL11_HUMAN (human, UniProt P51671 24-97); experiment: yeast surface display FACS
CCL11_HUMAN, sequence (P51671 24-97 limits assumed): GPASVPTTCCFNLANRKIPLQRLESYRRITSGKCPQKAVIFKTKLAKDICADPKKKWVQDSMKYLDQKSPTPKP

CCL18_HUMAN = biological target: T20, CCL18_HUMAN (human, UniProt P55774 21-89); experiment: yeast surface display FACS
T20 sequence: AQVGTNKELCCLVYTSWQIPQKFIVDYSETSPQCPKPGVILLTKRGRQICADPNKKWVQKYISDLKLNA

CXCL12_HUMAN = CXCL12_HUMAN (human, UniProt P48061 22-89); experiment: yeast surface display FACS
CXCL12_HUMAN, sequence (P48061 22-89 limits assumed): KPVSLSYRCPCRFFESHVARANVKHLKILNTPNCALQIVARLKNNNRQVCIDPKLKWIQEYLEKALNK

T1 sequence (A0A090XBL6 20-118): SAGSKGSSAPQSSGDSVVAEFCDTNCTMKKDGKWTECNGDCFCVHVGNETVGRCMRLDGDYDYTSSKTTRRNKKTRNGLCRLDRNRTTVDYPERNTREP

B1: CXCL7_HUMAN (ligand)
chain: AELRCMCIKTTSGIHPKNIQSLEVIGKGTHCNQVEVIATLKDGRKICLDPDAPRIKKIVQKKLAGDESAD
- binding result (P1080_IXORI [1]): no binding (tested: 300 nM)
- binding result (P1095_IXORI [2]): no binding (tested: 300 nM)
- binding result (P1096_IXORI [3]): no binding (tested: 300 nM)
- binding result (P1127_IXORI [4]): no binding (tested: 300 nM)
- binding result (P1128_IXORI): no binding (tested: 300 nM)
- binding result (P1132_IXORI [5]): no binding (tested: 300 nM)
- binding result (P1134_IXORI [6]): no binding (tested: 300 nM)
- binding result (P1162_IXORI): no binding (tested: 300 nM)
- binding result (P1166_IXORI [7]): no binding (tested: 300 nM)
- binding result (P1168_IXORI [8]): no binding (tested: 300 nM)
- binding result (P1170_IXORI): no binding (tested: 300 nM)
- binding result (P1172_IXORI): no binding (tested: 300 nM)
- binding result (P1174_IXORI): no binding (tested: 300 nM)
- binding result (P1229_IXORI): no binding (tested: 300 nM)
- binding result (P1156_IXORI [9]): no binding (tested: 300 nM)

B2: CXCL14_HUMAN (ligand)
chain: SKCKCSRKGPKIRYSDVKKLEMKPKYPHCEEKMVIITTKSVSRYRGQEHCLHPKLQSTKRFIKWYNAWNEKRRVYEE
- binding result (P1156_IXORI [10]): no binding (tested: 300 nM)
- binding result (P1080_IXORI [11]): no binding (tested: 300 nM)
- binding result (P1095_IXORI [12]): no binding (tested: 300 nM)
- binding result (P1096_IXORI [13]): no binding (tested: 300 nM)
- binding result (P1127_IXORI [14]): no binding (tested: 300 nM)
- binding result (P1132_IXORI [15]): no binding (tested: 300 nM)
- binding result (P1134_IXORI [16]): no binding (tested: 300 nM)
- binding result (P1166_IXORI [17]): no binding (tested: 300 nM)
- binding result (P1168_IXORI [18]): no binding (tested: 300 nM)

B3: P974_AMBCA (other)
chain: ENTQQEEQDYDYGTDTCPFPVLANKTNKAKFVGCHQKCNGGDQKLTDGTACYVVERKVWDRMTPMLWYECPLGECKNGVCEDLRKKEDCRKGNGEEK
- Kd (CCL16_HUMAN): 11 nM

B4: P546_AMBCA (other)
chain: B3 chain with Q8E, E69S, D88E
- Kd (CCL16_HUMAN): 6.7 nM

B5: P993_AMBPA (other)
chain: HRHYDPNEPCLIAGLKTPRDALPAGCRYDCMIKKNQKLRDGLLCLDVPEKVVKRMVNYLNYSCPLGTCRKGICKRKHRNVRCQKYPVFYMSPPK
- binding result (CCL5_HUMAN [19]): binds
- binding result (CCL17_HUMAN): binds
- binding result (CCL20_HUMAN): binds

B6: P1252_AMBAM (other)
chain: RGGAASVPANASIPGCGDAQTTPAAPEDQPKHYVVYRDGNGCEVKIIGTWMTTEDYNCLPDTFRKNRAPHGKVKLPASCKKTCGNAVQNLKDGTPCRKVFGDLGRRRNLIKNGCLVGACQSGLCVSGNRTISCYIPPNSTDTRATPGSFAE
- binding result (CCL17_HUMAN): binds
- binding result (CCL20_HUMAN): binds
- binding result (CXCL8_HUMAN): binds

B7: P1015_AMBCA (other)
chain: EEAPGPAPGCGEPEPTPPKPRRHGIVTNVNSCNSTILVWNGKEFPALCKVRCPHKSYRVSDFEPCLKFTNRRFLQERKDETPYKCKLGFCRHGTCITSEHSRKVPCKVPADRLDPSE
- binding result (CCL20_HUMAN): binds
- binding result (CXCL8_HUMAN): binds

B8: P1215_AMBPA (other)
chain: KTDTKNAAGELPPKVVIPGCEDPATTKAPLPDEPPYYGITIDKDGCQRKVLGSSQRQQRKVQNGRKLDGKKRGRRPVFVDLELTVDCKRKCNGTYSQLPDGENCLVSDGYPYGRWGTIKGGCYQGNCSSGQCHRGEKKVNCYLPKNITNDVPKSLNLAE
- binding result (CCL5_HUMAN [20]): binds
- binding result (CCL11_HUMAN): binds
- binding result (CCL18_HUMAN): binds
- binding result (CXCL12_HUMAN): binds
